Here are results for three proteins from publication PMC13188885, “Zero-valent sulfur is the product of assimilatory sulfite reductase and a substrate of cysteine synthase” (Applied and Environmental Microbiology, 2026).

Common to all, as to assay: mBBr-HPLC of cysteine released by TCEP; Michaelis-Menten fit
Conditions in all cases: O-acetyl-L-serine co-substrate 1.0-2.0 mM, 100 µM PLP, pH 7.4, 30 °C

Substrate in data set [1]: N[C@@H](CCC(=O)N[C@@H](CSS)C(=O)NCC(=O)O)C(=O)O
The class given is biochemical, Escherichia coli. The text has this:
(§1) mBBr-HPLC of cysteine released by TCEP; Michaelis-Menten fit on EcCysK | We then assayed the kinetics of all five cysteine synthases

Substrate in data set [2]: O=S(O)(O)=S
The class given is biochemical, Escherichia coli.
From the text: as §1

Substrate in data set [3]: N[C@@H](CCC(=O)N[C@@H](CSS)C(=O)NCC(=O)O)C(=O)O
It counts as biochemical, Escherichia coli. The text has this:
(§2) mBBr-HPLC of cysteine released by TCEP; Michaelis-Menten fit on EcCysM | We then assayed the kinetics of all five cysteine synthases
The source holds these as a separate data set.

Substrate in data set [4]: O=S(O)(O)=S
It counts as biochemical, Escherichia coli.
From the text: as §2
This is another data set of the same source.

Substrate in data set [5]: N[C@@H](CCC(=O)N[C@@H](CSS)C(=O)NCC(=O)O)C(=O)O
The class given is biochemical, Saccharolobus islandicus. From the text:
(§3) mBBr-HPLC of cysteine released by TCEP; Michaelis-Menten fit on SiRe_1641 | We then assayed the kinetics of all five cysteine synthases

Substrate in data set [6]: O=S(O)(O)=S
The class given is biochemical, Saccharolobus islandicus.
From the text: as §3

B1: EcCysK (Escherichia coli K-12) (protein)
chain: MSKIFEDNSLTIGHTPLVRLNRIGNGRILAKVESRNPSFSVKCRIGANMIWDAEKRGVLKPGVELVEPTSGNTGIALAYVAAARGYKLTLTMPETMSIERRKLLKALGANLVLTEGAKGMKGAIQKAEEIVASNPEKYLLLQQFSNPANPEIHEKTTGPEIWEDTDGQVDVFIAGVGTGGTLTGVSRYIKGTKGKTDLISVAVEPTDSPVIAQALAGEEIKPGPHKIQGIGAGFIPANLDLKLVDKVIGITNEEAISTARRLMEEEGILAGISSGAAVAAALKLQEDESFTNKNIVVILPSSGERYLSTALFADLFTEKELQQ
notes: N-terminal His-tag, expressed in E. coli BL21(DE3), Ni-NTA
B1: in data set [1], the Km (usually the substrate concentration at which the rate is half of its maximum) was found to be 265 ± 37 µM; the maximal velocity (Vmax) (usually the rate approached at saturating substrate) was 0.163 µM/min/mg; the kcat (usually the number of substrate molecules converted per active site and unit of time at saturation) came to 9.78 ± 0.665 s⁻¹. For the same protein, in data set [2], the Km was determined as 1036 ± 82 µM, the Vmax stood at 0.074 µM/min/mg and the kcat worked out at 2.45 ± 0.935 s⁻¹.

B2: EcCysM (Escherichia coli K-12) (protein)
chain: MSTLEQTIGNTPLVKLQRMGPDNGSEVWLKLEGNNPAGSVKDRAALSMIVEAEKRGEIKPGDVLIEATSGNTGIALAMIAALKGYRMKLLMPDNMSQERRAAMRAYGAELILVTKEQGMEGARDLALEMANRGEGKLLDQFNNPDNPYAHYTTTGPEIWQQTGGRITHFVSSMGTTGTITGVSRFMREQSKPVTIVGLQPEEGSSIPGIRRWPTEYLPGIFNASLVDEVLDIHQRDAENTMRELAVREGIFCGVSSGGAVAGALRVAKANPDAVVVAIICDRGDRYLSTGVFGEEHFSQGAGI
notes: as for B1
As to B2, in data set [3], the Km was 325 ± 33 µM; the Vmax turned out to be 0.155 µM/min/mg; the kcat amounted to 5.16 ± 1.55 s⁻¹; the kcat/Km (in general, the turnover number divided by the Michaelis constant) is 14700 M⁻¹ s⁻¹. In data set [4], the Km came out at 408 ± 28 µM, the Vmax stood at 0.173 µM/min/mg, the kcat was 5.81 ± 0.92 s⁻¹ and the kcat/Km stood at 12600 M⁻¹ s⁻¹.

B3: SiRe_1641 (Saccharolobus islandicus REY15A) (protein)
chain: MSNPLHVFSNEQELLEGMWPTPLLKLRIGNDTWAKLEFYNPFSRSVKDRTAWFLFRQALIKNVNHIVEATSGNTGIALASLSSIYGMQFTMFLPVVAPKVYKVLVKLLGGNVIEAGNSTNDVIPLVKRFAEMSNAVNLDQFNNPINVIAHYETTAREIDEQLTSIGKRPSRIIATMGTGGHIAGVAKYFKEKYGNDVEIVGVQPSENSRIPGIKRQNGSNSLLRDIKIDRVVDVSLEEAIDGTISVARTSGILIGISAGATVAAYKRINDVSSTTVLIFPDDAFKYVDILEQTLKEI
notes: as for B1
For the protein B3, in data set [5], the Km stood at 279 ± 32 µM, the Vmax worked out at 0.174 µM/min/mg and the kcat was found to be 4.92 ± 1.27 s⁻¹. Moreover, in data set [6], the Km was determined as 1126 ± 162 µM, the Vmax worked out at 0.065 µM/min/mg and the kcat was 1.52 ± 0.511 s⁻¹.
